Numbering of substitutions follows the chain as printed. In names and notes the source's numbering stands.
B1: H237-MB731/MRAL-k0 (antibody, mouse IgG1, kappa)
heavy: QVQLQESGPGLVKPSETLSLTCAVSGHSISHDHAWSWVRQPPGEGLEWIGFISYSGITNYNPSLQGRVTISRDNSKNTLYLQMNSLRAEDTAVYYCARSLARTTAMDYWGEGTLVTVSSAKTTPPSVYPLAPGSAAQTNSMVTLGCLVKGYFPEPVTVTWNSGSLSSGVHTFPAVLQSDLYTLSSSVTVPSSTWPSETVTCNVAHPASSTKVDKKIVPRDCGCKPCICEPAEEELVFIFPPKPKDVLTITLTPKVTCVVVDISKDDPEVQFSWFVDDVEVHTAQTQPREEQFNSTFRSVSELPIMHQDWLNGKEFKCRVNSAAFPAPIEKTISKTKGRPKAPQVYTIPPPKEQMAKDKVSLTCMITDFFPEDITVEWQWNGQPAENYKNTQPIMDTDGSYFVYSKLNVQKSNWEAGNTFTCSVLHEGLHNHHTEKSLSHSPGK
light: not shown
notes: copies: 2 + 2
B2: H237-MB732/MRAL-k0 (antibody, mouse IgG1, kappa)
heavy: B1 heavy with A231N
light: not shown
notes: copies: 2 + 2
B3: H237-MB693/MRAL-k0 (antibody, mouse IgG1, kappa)
heavy: B1 heavy with E229T, P230D, A231Y, E233V, L235Y
light: not shown
notes: copies: 2 + 2
B4: H237-MB703/MRAL-k0 (antibody, mouse IgG1, kappa)
heavy: B1 heavy with P230A, A231P, E233V, L235N
light: not shown
notes: copies: 2 + 2
B5: H237-MB709/MRAL-k0 (antibody, mouse IgG1, kappa)
heavy: B1 heavy with E233V, L235T
light: not shown
notes: copies: 2 + 2
B6: H237-MB694/MRAL-k0 (antibody, mouse IgG1, kappa)
heavy: B1 heavy with P230D, A231P, E233V, L235Y
light: not shown
notes: copies: 2 + 2
B7: H237-MB691/MRAL-k0 (antibody, mouse IgG1, kappa)
heavy: B1 heavy with P230V, E233V, L235Y
light: not shown
notes: copies: 2 + 2
B8: H237-MB715/MRAL-k0 (antibody, mouse IgG1, kappa)
heavy: B1 heavy with A231N, E233V, L235V
light: not shown
notes: copies: 2 + 2
B9: H237-MB793/MRAL-k0 (antibody)
heavy: B1 heavy with E229Q, A231N, E233V, L235I
light: not shown
notes: 'S2391' in r30c2 read as S239I; copies: 2 + 2
B10: H237-MB692/MRAL-k0 (antibody, mouse IgG1, kappa)
heavy: B1 heavy with A231P, E233V, L235Y
light: not shown
notes: copies: 2 + 2
B11: H237-MB690/MRAL-k0 (antibody, mouse IgG1, kappa)
heavy: B1 heavy with E229T, E233V, L235Y
light: not shown
notes: copies: 2 + 2
B12: H237-MB886/MRAL-k0 (antibody, mouse IgG1, kappa)
heavy: B1 heavy with A231N, L235S
light: not shown
notes: copies: 2 + 2
B13: H237-MB718/MRAL-k0 (antibody, mouse IgG1, kappa)
heavy: B1 heavy with A231N, E233V, L235T
light: not shown
notes: copies: 2 + 2
B14: H237-MB700/MRAL-k0 (antibody, mouse IgG1, kappa)
heavy: B1 heavy with P230V, A231P, L235Y
light: not shown
notes: copies: 2 + 2
B15: H237-MB702/MRAL-k0 (antibody, mouse IgG1, kappa)
heavy: B1 heavy with E229T, P230A, A231Y, E233V, L235N
light: not shown
notes: copies: 2 + 2
B16: H237-MB717/MRAL-k0 (antibody, mouse IgG1, kappa)
heavy: B1 heavy with A231N, E233V, L235P
light: not shown
notes: copies: 2 + 2
B17: H237-MB688/MRAL-k0 (antibody, mouse IgG1, kappa)
heavy: B1 heavy with E229T, P230V, A231Y, E233V, L235N
light: not shown
notes: copies: 2 + 2
B18: H237-MB628/MRAL-k0 (antibody)
heavy: B1 heavy with E233V
light: not shown
notes: copies: 2 + 2
B19: H237-MB645/MRAL-k0 (antibody, mouse IgG1, kappa)
heavy: B1 heavy with P230V, A231Y, E233V, L235Y
light: not shown
notes: copies: 2 + 2
B20: H237-MB636/MRAL-k0 (antibody, mouse IgG1, kappa)
heavy: B1 heavy with P230V, A231Y, E233V, L235N
light: not shown
notes: copies: 2 + 2
B21: H237-MB657/MRAL-k0 (antibody, mouse IgG1, kappa)
heavy: B1 heavy with A231N, E233V, L235F
light: not shown
notes: copies: 2 + 2
B22: H237-MB646/MRAL-k0 (antibody, mouse IgG1, kappa)
heavy: B1 heavy with E233V, L235Y
light: not shown
notes: copies: 2 + 2
B23: H237-MB642/MRAL-k0 (antibody, mouse IgG1, kappa)
heavy: B1 heavy with P230D, A231Y, E233V, L235Y
light: not shown
notes: copies: 2 + 2
B24: H237-MB632/MRAL-k0 (antibody, mouse IgG1, kappa)
heavy: B1 heavy with P230A, A231Y, E233V, L235N
light: not shown
notes: copies: 2 + 2

biological target: T1, mouse FcγRII (mouse, UniProt P08101 30-210); experiment: SPR (Biacore), antibody captured on Protein L
T1 construct: Extracellular domain with C-terminal His tag, made in FreeStyle 293 cells; also called mFcγRII; mFcgRII
T1 sequence: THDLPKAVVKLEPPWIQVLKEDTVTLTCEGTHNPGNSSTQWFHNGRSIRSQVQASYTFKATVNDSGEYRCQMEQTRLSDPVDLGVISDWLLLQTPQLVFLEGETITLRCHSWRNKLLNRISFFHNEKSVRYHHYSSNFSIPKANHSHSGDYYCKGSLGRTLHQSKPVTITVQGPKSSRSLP

Binder | Kd
B1 | 238 nM
B2 | 321 nM
B3 | 267 nM
B4 | 345 nM
B5 | 345 nM
B6 | 598 nM
B7 | 559 nM
B8 | 236 nM
B9 | 179 nM
B10 | 186 nM
B11 | 204 nM
B12 | 246 nM
B13 | 247 nM
B14 | 582 nM
B15 | 339 nM
B16 | 514 nM
B17 | 513 nM

Biological target: T2, mouse FcγRIII (mouse, UniProt P08508 31-215)
T2 construct: Extracellular domain with C-terminal His tag, made in FreeStyle 293 cells; also called mFcγRIII; mFcgRIII
T2 chain: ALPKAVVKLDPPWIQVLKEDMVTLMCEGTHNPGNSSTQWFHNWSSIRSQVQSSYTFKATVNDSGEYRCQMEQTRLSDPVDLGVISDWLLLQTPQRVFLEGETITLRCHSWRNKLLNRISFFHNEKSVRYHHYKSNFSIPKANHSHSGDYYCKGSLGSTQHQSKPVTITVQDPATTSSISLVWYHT
Experiment: SPR (Biacore), antibody captured on Protein L

Binder | Kd
B1 | 15300 nM
B2 | 13700 nM
B3 | 5410 nM
B4 | 4900 nM
B5 | 7690 nM
B6 | 16400 nM
B7 | 7180 nM
B8 | 11900 nM
B9 | 5500 nM
B10 | 4440 nM
B11 | 2710 nM
B12 | 7220 nM
B13 | 5560 nM
B14 | 11600 nM
B15 | 3520 nM
B16 | 8620 nM
B17 | 6300 nM

biological target: T3, mouse FcγRII extracellular domain, C-terminal His tag (mouse, UniProt P08101 30-210); experiment: SPR (Biacore T200); KD of H237-mIgG1/MRAL-k0 / KD of variant
T3 construct: Whole entry named; also called mFcγRII; mFcgRII
T3 sequence: T1 sequence
Source text: (§1) The antibody H chain variable region used was the variable region H237 (SEQ ID NO: 1) of the H chain VH3-IgG1 of the anti-IL-6 receptor antibody Fv4-IgG1 described in WO2009/125825. The antibody L chain commonly used was the L chain MRAL-k0 (SEQ ID NO: 2) of the anti-IL-6 receptor antibody tocilizumab. The aforementioned 7 variants were used as templates to substitute the amino acids at the alteration sites by the amino acids before the alteration. These variants were expressed and purified by the method of Reference Example 1 and evaluated for their binding to mFcγRII and mFcγRIII by the method of Reference Example 2 using Biacore T200.
(§2) Each altered antibody was analyzed for its interaction with each Fcγ receptor prepared above using Biacore T100 (GE Healthcare Japan Corp.), Biacore T200 (GE Healthcare Japan Corp.), Biacore A100, or Biacore 4000. The running buffer used was HBS-EP+ (GE Healthcare Japan Corp.). The assay temperature was set to 25° C. The sensor chips used were chips prepared by immobilizing Protein L (ACTIGEN or BioVision) onto Series S Sensor Chip CM5 (GE Healthcare Japan Corp.) or Series S Sensor Chip CM4 (GE Healthcare Japan Corp.) by the amine coupling method.

Binder | relative mFcγRII-binding activity (mIgG1 = 1)
B18 | 2.09 fold
B19 | 1.06 fold
B20 | 3.92 fold
B21 | 1.54 fold
B22 | 3.8 fold
B23 | 1.65 fold
B24 | 3.72 fold

Biological target: T4, mouse FcγRIII extracellular domain, C-terminal His tag (mouse, UniProt P08508 31-215)
T4 construct: Whole entry named; also called mFcγRIII; mFcgRIII
T4 chain: T2 chain
Experiment: as above
Source text: as §1, §2

Binder | relative mFcγRIII-binding activity (mIgG1 = 1)
B18 | 0.083 fold
B19 | 0.217 fold
B20 | 0.172 fold
B21 | 0.087 fold
B22 | 0.176 fold
B23 | 0.1 fold
B24 | 0.236 fold

biological target: T1, mouse FcγRII; experiment: SPR (Biacore), KD of H237-mIgG1/MRAL-k0 (same run) / KD of variant

Binder | relative mFcγRII-binding activity (mIgG1 = 1)
B1 | 1.13 fold
B2 | 0.84 fold
B3 | 1.22 fold
B4 | 0.94 fold
B5 | 0.78 fold
B6 | 0.54 fold
B7 | 0.58 fold
B8 | 1.14 fold
B9 | 1.37 fold
B10 | 1.75 fold
B11 | 1.6 fold
B12 | 1.47 fold
B13 | 1.08 fold
B14 | 0.56 fold
B15 | 0.96 fold
B16 | 0.52 fold
B17 | 0.63 fold

Biological target: T2, mouse FcγRIII
Experiment: as above

Binder | relative mFcγRIII-binding activity (mIgG1 = 1)
B1 | 0.03 fold
B2 | 0.03 fold
B3 | 0.09 fold
B4 | 0.1 fold
B5 | 0.06 fold
B6 | 0.03 fold
B7 | 0.07 fold
B8 | 0.04 fold
B9 | 0.07 fold
B10 | 0.12 fold
B11 | 0.19 fold
B12 | 0.08 fold
B13 | 0.08 fold
B14 | 0.04 fold
B15 | 0.14 fold
B16 | 0.05 fold
B17 | 0.08 fold

Source: patent publication US20150203577A1 (Chugai, published 2015)
